# Experimental data from patent US20130109846A1 (published 2013).
# Molecular target: human CD28 (human, UniProt P10747 19-220)
# Assay: cell-based or functional assay
Binder,Luciferase assay (EC50),MLR assay (EC50)
1h-114 (other) VH: EVQLLESGGGLVQPGGSLRLSCAASGFTFASYSMAWVRQAPGKGLEWVSTIMPSGQRTYYADSVKGRFTISRDNSKNTLYLQMNSLRAEDTAVYYCAKNQSHQRRGIFDYWGQGTLVTVSS,3100 nM,
1h-100 (other) VH: EVQLLESGGGLVQPGGSLRLSCAASGFTFESYWMSWVRQAPGKGLEWVSTIADTGGLTYYADSVKGRFTISRDNSKNTLYLQMNSLRAEDTAVYYCAKVAYVLDDQPAFDYWGQGTLVTVSS,> 7000 nM,
1h-35-9 (other) VL: DIQMTQSPSSLSASVGDRVTITCRASQYIGSALGWYQQKPGKAPKLLIYRASNMQSGVPSRFSGSGSGTDFTLTISSLQPEDFATYYCQQLAIRPFTFGQGTKVEIKR,278 nM,318 nM
1h-99-262 (other) VH: EVQLLESGGGLVQPGGSLRLSCAASGFTFYKANMSWVRQAPGKGLEWVSWIEAPGVQTFYADSVRGRFTISRDNSKNTLYLQMNSLRAEDTAVYYCARSPFGPLYGFDYRGQGTLVTVSS,6 nM,8 nM
1h-99-268 (other) VH: EVQLLESGGGLVQPGGSLRLSCAASGFTFKSANMSWVRQAPGKGLEWVSWIEAPGVQTFYADSVRGRFTISRDNSKNTLYLQMNSLRAEDTAVYYCARSPFGPLYGFDYRGQGTLVTVSS,11 nM,13 nM
1h-99-269 (other) VH: EVQLLESGGGLVQPGGSLRLSCAASGFTFKSANMSWVRQAPGKGLEWVSWIEASGVQTFYADSVKGRFTISRDNSKNTLYLQMNSLRAEDTAVYYCAKSPFGPLYGFDYRGQGTLVTVSS,10 nM,5 nM
1h-99-243 (other) VH: EVQLLESGGGLVQPGGSLRLSCAASGFTFDSANMSWGRQAPGKGLEWVSWIEASGVQTFYADSVKGRFTISRDNSKNTLYLQMNSLRAEDTAVYYCAKSPFGPLYGFDYRGQGTLVTVSS,4 nM,8 nM
1h-99-246 (other) VH: EVQLLESGGGLVQPGGSLRLSCAASGFTFDSANMSWARQAPGKGLEWVSWIEASGGQTFYADSVKGRFTISRDNSKNTLYLQMNSLRAEDTAVYYCAKSPFGPLYGFDYRGQGTLVTVSS,3 nM,8 nM
1h-99-267 (other) VH: EVQLLESGGGLVQPGGSLRLSCAASGFTFYRSNMSWVRQAPGKGLEWVSWIEASGVQTFYADSVKGRFTISRDNSKNTLYLQMNSLRAEDTAVYYCAKSPFGPLYGFDYRGQGTLVTVSS,6 nM,4 nM
1h-99-276 (other) VH: EVQLLESGGGLVQPGGSLRLSCAASGFTFNRANMSWARQAPGKGLEWVSWIEDTGTQTFYADSVKGRFTISRDNSKNTLYLQMNSLRAEDTAVYYCAKSPFGPLYGFDYRGQGTLVTVSS,5 nM,18 nM
1h-99-264 (other) VH: EVQLLESGGGLVQPGGSLRLSCAASGFTFDKSNMSWVRQAPGKGLEWVSWIEAPGVQTFYADSVRGRFTISRDNSKNTLYLQMNSLRAEDTAVYYCARSPFGPLYGFDYRGQGTLVTVSS,5 nM,3 nM
1h-99-260 (other) VH: EVQLLESGGGLVQPGGSLRLSCAASGFTFDSANMSWARQAPGKGLEWVSWIEANGPQTFYADSVKGRFTISRDNSKNTLYLQMNSLRAEDTAVYYCAKSPFGPLYGFDYRGQGTLVTVSS,11 nM,13 nM
1h-99-275 (other) VH: EVQLLESGGGLVQPGGSLRLSCAASGFTFKDKNMSWARQAPGKGLEWVSWIEDTGTQTFYADSVKGRFTISRDNSKNTLYLQMNSLRAEDTAVYYCARSPFGPLYGFDYRGQGTLVTVSS,6 nM,10 nM
1h-36-6 (other) VL: DIQMTQSPSSLSASVGDRVTITCRASRDIALDLLWYQLKPGKAPKLLIKGWSGLQSGVPSRFSGSGSGTDFTLTISSLQPEDFATYFCAQGWGRPVTFGQGTKVEIKR,162 nM,260 nM

# Other lines, results leading:
Luciferase assay (EC50),MLR assay (EC50),Binder
4000 nM,> 7000 nM,1h-115 (other) VH: EVQLLESGGGLVQPGGSLRLSCAASGFTFSEYSMAWVRQAPGKGLEWVSHISRDGEFTYYADSVKGRFTISRDNSKNTLYLQMNSLRAEDTAVYYCAKGNADLGWVQPHLFVYWGQGTLVTVSS
279 nM,197 nM,1h-35-2 (other) VL: DIQMTQSPSSLSASVGDRVTITCRASQYIGSALGWYQQKPGKAPKLLIYRASHLQSGVPSRFSGSGSGTDFTLTISSLQPEDFATYYCQQLAIRPFTFGQGTKVEIKR
261 nM,248 nM,1h-35-5 (other) VL: DIQMTQSPSSLSASVGDRVTITCRASQYIGSAISWYQQKPGRAPKLLIYRASYLQSGVPSRFSGSGSGTDFTLTISSLQPEDFATYYCQQLAIRPFTFGQGTKVGIKR
79 nM,270 nM,1h-35-7 (other) VL: DIQMTQSPSSLSASVGDRVTITCRASQYIGSALGWYQQKPGKAPKLLIYRASNLQSGVPSRFSGSGYGTGFTLTISSLQPEDFATYYCQQLAIRPFTFGQGTKVEIKR
2800 nM,,1h-119 (other) VH: EVQLLESGGGLVQPGGSLRLSCAASGFTFTDRCMMWVRQAPGKGLEWVSSIQVEGNHTYYADSVKGRFTISRDNSKNTLYLQMNSLRAEDTAVYYCAKCMTVGPGNSFDYWGQGTLVTVSS
17 nM,22 nM,1h-99-241 (other) VH: EVQLLESGGGLVQPGGSLRLSCAASGFTFDSANMSWVRQAPGKGLEWVSWIENNGPQTFYADSVKGRFTISRDDSKNTLYLQMNSLRAEDTAVYYCAKSPFGPLYGFDYRGQGTLVTVSS
9 nM,7 nM,1h-99-256 (other) VH: EVQLLESGGGLVQPGGSLRLSCAASGFTFDSANMSWVRQAPGKGLEWVSWIEAIGVQTFYADSVKGRFTISRDNSKNTLYLQMNSLRAEDTAVYYCAKSPFGPLYGFDYRGQGTLVTVSS
8 nM,4 nM,1h-99-266 (other) VH: EVQLLESGGGLVQPGGSLRLSCAASGFTFYRSNMSWVRQAPGKGLEWVSWIEAPGVQTFYADSVRGRFTISRDNSKNTLYLQMNSLRAEDTAVYYCARSPFGPLYGFDYRGQGTLVTVSS
9 nM,8 nM,1h-99-250 (other) VH: EVQLLESGGGLVQPGGSLRLSCAASGFTFDSANMSWARQAPGKGLEWVSWIEATGGQTFYADSVKGRFTISRDNSKNTLYLQMNSLRAEDTAVYYCAKSPFGPLYGFDYRGQGTLVTVSS
6 nM,11 nM,1h-99-249 (other) VH: EVQLLESGGGLVQPGGSLRLSCAASGFTFDSANMSWVRQAPGKGLEWVSWIEDIGVQTFYADSVKGRFTISRDNSKNTLYLQMNSLRAEDTAVYYCAKSPFGPLYGFDYRGQGTLVTVSS
11 nM,7 nM,1h-99-254 (other) VH: EVQLLESGGGLVQPGGSLRLSCAASGFTFDSANMSWARQAPGKGLEWVSWIESSGGQTFYADSVKGRFTISRDNSKNTLYLQMNSLRAEDTAVYYCAKSPFGPLYGFDYRGQGTLVTVSS
6 nM,4 nM,1h-99-263 (other) VH: EVQLLESGGGLVQPGGSLRLSCAASGFTFYKANMSWVRQAPGKGLEWVSWIEASGVQTFYADSVKGRFTISRDNSKNTLYLQMNSLRAEDTAVYYCAKSPFGPLYGFDYRGQGTLVTVSS
6 nM,9 nM,1h-99-277 (other) VH: EVQLLESGGGLVQPGGSLRLSCAASGFTFDSANMSWARQAPGKGLEWVSWIEAVGVQTFYADSVKGRFTISRDNSKNTLYLQMNSLRAEDTAVYYCAKSPFGPLYGFDYRGQGTLVTVSS
6 nM,6 nM,1h-99-297 (other) VH: EVQLLESGGGLVQPGGSLRLSCAASGFTFDSANMSWARQAPGKGLEWVSWIEAIGVQTFYADSVKGRFTISRDNSKNTLYLQMNSLRAEDTAVYYCAKSPFGPLYGFDYRGQGTLVTVSS
6 nM,11 nM,1h-99-245 (other) VH: EVQLLESGGGLVQPGGSLRLSCAASGFTFDSANMSWARQAPGKGLEWVSWIEASGFQTFYADSVKGRFTISRDNSKNTLYLQMNSLRAEDTAVYYCAKSPFGPLYGFDYRGQGTLVTVSS
4 nM,6 nM,1h-99-270 (other) VH: EVQLLESGGGLVQPGGSLRLSCAASGFTFYKANMSWARQAPGKGLEWVSWIEASGVQTFYADSVKGRFTISRDNSKNTLYLQMNSLRAEDTAVYYCAKSPFGPLYGFDYRGQGTLVTVSS
12 nM,13 nM,1h-99-278 (other) VH: EVQLLESGGGLVQPGGSLRLSCAASGFTFPHSNMSWARQAPGKGLEWVSWIEDTGTQTFYADSVKGRFTISRDNSKNTLYLQMNSLRAEDTAVYYCAKSPFGPLYGFDYRGQGTLVTVSS
